Patent publication US20110262366A1
No end group written: not given here.

What was measured:
[1] = biological target: VEGF receptors on HUVECs; assay: competition with ^125I-VEGF on HUVECs
[2] = biological target: endothelial cell receptor on HAEC (human aortic endothelial cells); assay: competition against 1% DPPE-GTKPPR microbubbles (competitor) on HAEC, static
[3] = biological target: endothelial cell receptor on HAEC (human aortic endothelial cells); assay: competition, 50 µM free TKPPR against TKPPR-beads (competitor) on HAEC, static, n = 11
[4] = biological target: endothelial cell receptor on HAEC (human aortic endothelial cells); assay: competition, 100 µM free TKPPR against TKPPR-beads (competitor) on HAEC, static, n = 11
[5] = biological target: endothelial cell receptor on HAEC (human aortic endothelial cells); assay: competition, 200 µM free TKPPR against TKPPR-beads (competitor) on HAEC, static, n = 11
[6] = biological target: endothelial cell receptor on HAEC (human aortic endothelial cells); assay: competition, 10 µM free TKPPR against 1% BRU-114 microbubbles (competitor) on HAEC, static
[7] = biological target: endothelial cell receptor on HAEC (human aortic endothelial cells); assay: competition, 25 µM free TKPPR against 1% BRU-114 microbubbles (competitor) on HAEC, static
[8] = biological target: endothelial cell receptor on HAEC (human aortic endothelial cells); assay: competition, 10 µM free TKPPR against 10% BRU-114 microbubbles (competitor) on HAEC, static
[9] = biological target: endothelial cell receptor on HAEC (human aortic endothelial cells); assay: competition, 2.5 µM free TKPPR against 1% BRU-114 microbubbles (competitor) on HAEC, static
[10] = biological target: endothelial cell receptor on HAEC (human aortic endothelial cells); assay: competition, 5 µM free TKPPR against 1% DPPE-GTKPPR microbubbles (competitor) on HAEC, static
[11] = biological target: endothelial cell receptor on HAEC (human aortic endothelial cells); assay: competition, 50 µM free TKPPR against 1% DPPE-GTKPPR microbubbles (competitor) on HAEC, static
[12] = biological target: endothelial cell receptor on HAEC (human aortic endothelial cells); assay: competition, free TKPPR 10 µM (head prints 10 µmol) against 5% DPPE-GTKPPR microbubbles (competitor) on HAEC, static
[13] = biological target: endothelial cell receptor on HAEC (human aortic endothelial cells); assay: competition, free TKPPR 100 µM (head prints 100 µmol) against 5% DPPE-GTKPPR microbubbles (competitor) on HAEC, static

**Q.** Which IC50 [1] does the source give for TKPPR-OH [TKPPR-OH (L-threonyl-L-lysyl-L-prolyl-L-prolyl-L-arginine)] here?
**A.** 250 µM

**Q.** And the % inhibition of bubble binding [2]?
**A.** 82.7%

**Q.** And the % Inhibition [3]?
**A.** 50.5%

**Q.** And the % Inhibition [4]?
**A.** 62%

**Q.** What about the % Inhibition [5] of the same binder?
**A.** 72.2%

**Q.** And the Bubbles Bound in presence of competitor [6]?
**A.** 10 bubbles

**Q.** And the Bubbles Bound in presence of competitor [7]?
**A.** 106 bubbles

**Q.** What about the Bubbles Bound in presence of competitor [8] of the same binder?
**A.** 1090 bubbles

**Q.** And the Bubbles Bound in presence of competitor [9]?
**A.** 1240 bubbles

**Q.** What about the Average % Inhibition [10] of the same binder?
**A.** 45.7%

**Q.** What about the Average % Inhibition [11] of the same binder?
**A.** 92.7%

**Q.** And the Bubbles Bound in presence of competitor [12]?
**A.** 865 bubbles

**Q.** What about the Bubbles Bound in presence of competitor [13] of the same binder?
**A.** 62 bubbles
